Two molecules from patent US20040115660A1 (published 2004) can be followed below.

One assay has as its target T1, mouse TIE2 (mouse, UniProt Q02858 23-1122).
T1 construct: whole, on cells
Description: co-immunoprecipitation from cotransfected 293T cells.

For another assay, the target named is T2, mouse VEGFR2 (mouse, UniProt P35918 20-1345).
T2 construct: whole, on cells
The assay is described as above.

In the next assay the target is T3, human EGFR (human, UniProt P00533 25-1210).
T3 construct: whole, on cells
The assay is described as above.

In the next assay the target is T4, human EphB3 (human, UniProt P54753 34-998).
T4 construct: whole, on cells; also called Eph receptor B3
T4 sequence (looked up): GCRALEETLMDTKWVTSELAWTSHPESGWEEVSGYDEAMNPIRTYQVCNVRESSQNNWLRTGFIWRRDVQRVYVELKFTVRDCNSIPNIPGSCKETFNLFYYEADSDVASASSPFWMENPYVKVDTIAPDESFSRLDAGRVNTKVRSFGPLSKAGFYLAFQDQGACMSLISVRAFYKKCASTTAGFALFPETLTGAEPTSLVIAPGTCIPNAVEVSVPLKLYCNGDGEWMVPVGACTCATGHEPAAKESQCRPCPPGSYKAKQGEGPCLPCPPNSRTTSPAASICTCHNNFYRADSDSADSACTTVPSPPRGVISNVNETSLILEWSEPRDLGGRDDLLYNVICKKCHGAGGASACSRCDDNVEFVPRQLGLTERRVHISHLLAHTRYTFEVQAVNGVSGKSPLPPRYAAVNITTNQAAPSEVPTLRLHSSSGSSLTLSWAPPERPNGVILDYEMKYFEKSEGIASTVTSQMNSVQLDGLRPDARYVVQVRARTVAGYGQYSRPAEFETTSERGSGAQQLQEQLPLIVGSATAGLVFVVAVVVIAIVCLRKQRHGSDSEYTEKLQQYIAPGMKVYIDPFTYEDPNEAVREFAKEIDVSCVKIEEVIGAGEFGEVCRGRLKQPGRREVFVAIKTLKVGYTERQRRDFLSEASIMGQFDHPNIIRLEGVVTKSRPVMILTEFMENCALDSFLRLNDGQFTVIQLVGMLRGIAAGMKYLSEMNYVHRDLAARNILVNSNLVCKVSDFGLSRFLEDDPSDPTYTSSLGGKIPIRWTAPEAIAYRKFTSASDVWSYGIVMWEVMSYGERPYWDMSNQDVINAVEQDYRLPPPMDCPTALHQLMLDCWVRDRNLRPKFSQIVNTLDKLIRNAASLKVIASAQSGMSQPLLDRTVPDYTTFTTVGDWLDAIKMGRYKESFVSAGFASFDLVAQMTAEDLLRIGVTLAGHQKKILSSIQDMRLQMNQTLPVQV
Description: anti-Myc immunoprecipitation from 293T cells co-expressing RYK, AF-6 and EphB3 (FIG. 4b). Here is the method: Lysis and subsequent analysis of complexes in triple-transfected cells was performed as previously described (13). The inventors prepared embryonic and tissue lysates by Dounce homogenization. The inventors cleared lysates of insoluble debris by centrifugation, and performed immunoprecipitation from cleared lysates containing equal amounts of total protein as assessed by the BCA assay (Pierce). Immune complexes were captured by incubation with protein A-, G- or L-conjugated beads. The mouse anti-RYK monoclonal antibody (IgMₓ isotype⁵) was covalently coupled to CNBr-activated Sepharose 4B (Pharmacia) at 1 mg/ml packed beads for immunoprecipitation or cross-linked it in solution using a goat anti-mouse IgM (Jackson Immunoresearch). The inventors used anti-FLAG monoclonal antibody M2 (Sigma) for immunoprecipitation as an affinity gel and for Western blotting in a biotinylated form. Anti-AF-6 monoclonal antibody (clone 35) was obtained from Transduction Laboratories and anti-Myc monoclonal antibody (clone 9E10) from Zymed Laboratories. Immune complexes were collected by centrifugation and washed three times in HNTG, eluted in 20-50 μL of 2×SDS-PAGE sample buffer containing 10% v/v 2-mercaptoethanol, fractionated by SDS-PAGE and electroblotted to Immobilon P (Millipore) for Western analysis. […]

The target in a further assay is T5, endogenous mouse AF-6 (mouse, UniProt Q9QZQ1 1-1820, limits assumed).
T5 construct: also called Afadin
T5 sequence (Q9QZQ1 whole entry): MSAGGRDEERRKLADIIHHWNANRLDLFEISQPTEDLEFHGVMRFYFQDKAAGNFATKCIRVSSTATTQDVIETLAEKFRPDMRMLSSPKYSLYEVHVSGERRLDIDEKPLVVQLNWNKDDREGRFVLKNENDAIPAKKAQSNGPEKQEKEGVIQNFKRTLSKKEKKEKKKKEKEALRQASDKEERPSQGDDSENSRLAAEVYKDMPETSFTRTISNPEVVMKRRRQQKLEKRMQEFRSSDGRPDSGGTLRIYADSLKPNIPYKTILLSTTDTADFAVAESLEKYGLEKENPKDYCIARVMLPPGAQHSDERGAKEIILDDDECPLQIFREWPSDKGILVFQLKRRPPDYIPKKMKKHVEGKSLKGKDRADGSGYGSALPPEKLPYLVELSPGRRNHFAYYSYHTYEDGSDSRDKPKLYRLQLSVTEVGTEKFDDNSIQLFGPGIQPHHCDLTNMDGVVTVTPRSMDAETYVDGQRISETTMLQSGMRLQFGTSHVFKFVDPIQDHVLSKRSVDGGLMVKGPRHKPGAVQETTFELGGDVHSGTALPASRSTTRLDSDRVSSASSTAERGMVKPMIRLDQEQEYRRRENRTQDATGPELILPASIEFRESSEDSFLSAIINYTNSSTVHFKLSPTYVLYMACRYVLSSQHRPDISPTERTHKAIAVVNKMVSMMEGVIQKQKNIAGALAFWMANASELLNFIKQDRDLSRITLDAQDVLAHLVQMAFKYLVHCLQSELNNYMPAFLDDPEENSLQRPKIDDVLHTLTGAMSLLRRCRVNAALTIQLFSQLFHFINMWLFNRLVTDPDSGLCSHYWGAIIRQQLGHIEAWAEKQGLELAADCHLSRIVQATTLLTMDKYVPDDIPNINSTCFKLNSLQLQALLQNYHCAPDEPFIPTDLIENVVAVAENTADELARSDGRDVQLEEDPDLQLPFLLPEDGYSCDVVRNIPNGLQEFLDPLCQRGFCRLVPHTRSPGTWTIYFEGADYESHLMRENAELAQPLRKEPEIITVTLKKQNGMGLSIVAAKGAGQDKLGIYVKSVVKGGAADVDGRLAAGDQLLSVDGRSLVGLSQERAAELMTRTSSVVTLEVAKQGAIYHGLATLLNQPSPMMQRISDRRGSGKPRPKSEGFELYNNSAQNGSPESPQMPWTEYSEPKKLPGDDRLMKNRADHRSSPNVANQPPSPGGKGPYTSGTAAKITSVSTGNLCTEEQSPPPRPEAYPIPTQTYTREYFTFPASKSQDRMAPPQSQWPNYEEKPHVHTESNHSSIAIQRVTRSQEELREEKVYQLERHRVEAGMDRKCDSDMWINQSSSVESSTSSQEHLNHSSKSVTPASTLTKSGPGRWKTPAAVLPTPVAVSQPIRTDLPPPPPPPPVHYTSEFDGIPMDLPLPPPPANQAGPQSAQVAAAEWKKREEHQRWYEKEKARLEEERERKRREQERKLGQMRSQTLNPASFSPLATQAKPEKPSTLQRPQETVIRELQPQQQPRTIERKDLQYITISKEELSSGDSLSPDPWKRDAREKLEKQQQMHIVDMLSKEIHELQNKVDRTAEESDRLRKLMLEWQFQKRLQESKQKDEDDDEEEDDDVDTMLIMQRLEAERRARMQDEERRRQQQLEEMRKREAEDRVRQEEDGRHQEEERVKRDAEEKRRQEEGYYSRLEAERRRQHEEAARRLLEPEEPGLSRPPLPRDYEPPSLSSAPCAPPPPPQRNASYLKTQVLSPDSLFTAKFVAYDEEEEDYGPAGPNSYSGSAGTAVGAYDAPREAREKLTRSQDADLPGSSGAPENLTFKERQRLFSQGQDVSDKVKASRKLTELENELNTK
Nature of the assay: co-immunoprecipitation from mouse tissue lysates, both directions (FIG. 4c).

T1 sequence (Q02858 23-1122): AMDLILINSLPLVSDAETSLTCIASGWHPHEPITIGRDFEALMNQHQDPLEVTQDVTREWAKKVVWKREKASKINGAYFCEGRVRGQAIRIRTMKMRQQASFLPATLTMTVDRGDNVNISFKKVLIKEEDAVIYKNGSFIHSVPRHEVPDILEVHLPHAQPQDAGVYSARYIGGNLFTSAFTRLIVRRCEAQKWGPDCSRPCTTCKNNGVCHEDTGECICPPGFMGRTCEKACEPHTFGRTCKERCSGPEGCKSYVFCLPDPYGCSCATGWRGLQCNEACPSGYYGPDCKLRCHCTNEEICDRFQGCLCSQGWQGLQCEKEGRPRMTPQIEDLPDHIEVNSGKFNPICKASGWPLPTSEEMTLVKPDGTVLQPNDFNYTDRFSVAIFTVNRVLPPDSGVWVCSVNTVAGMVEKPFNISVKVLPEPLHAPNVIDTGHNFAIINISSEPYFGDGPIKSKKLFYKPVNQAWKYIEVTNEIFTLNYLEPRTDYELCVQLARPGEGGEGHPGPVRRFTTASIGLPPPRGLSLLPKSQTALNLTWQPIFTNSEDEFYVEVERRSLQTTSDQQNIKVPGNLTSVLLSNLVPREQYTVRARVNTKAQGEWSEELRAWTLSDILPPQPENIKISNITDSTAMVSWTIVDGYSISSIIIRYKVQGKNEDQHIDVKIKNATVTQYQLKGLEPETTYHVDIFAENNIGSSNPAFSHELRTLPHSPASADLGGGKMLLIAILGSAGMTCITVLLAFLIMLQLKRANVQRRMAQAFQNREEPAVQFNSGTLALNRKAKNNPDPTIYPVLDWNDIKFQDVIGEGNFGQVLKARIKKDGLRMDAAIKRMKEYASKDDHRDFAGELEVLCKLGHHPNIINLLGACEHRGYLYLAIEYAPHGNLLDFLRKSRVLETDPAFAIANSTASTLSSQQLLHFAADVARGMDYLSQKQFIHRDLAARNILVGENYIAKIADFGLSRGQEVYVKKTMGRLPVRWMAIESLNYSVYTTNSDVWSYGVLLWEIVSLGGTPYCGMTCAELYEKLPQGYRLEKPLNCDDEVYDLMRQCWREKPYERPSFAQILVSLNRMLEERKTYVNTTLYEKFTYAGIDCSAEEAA
T2 sequence (P35918 20-1345): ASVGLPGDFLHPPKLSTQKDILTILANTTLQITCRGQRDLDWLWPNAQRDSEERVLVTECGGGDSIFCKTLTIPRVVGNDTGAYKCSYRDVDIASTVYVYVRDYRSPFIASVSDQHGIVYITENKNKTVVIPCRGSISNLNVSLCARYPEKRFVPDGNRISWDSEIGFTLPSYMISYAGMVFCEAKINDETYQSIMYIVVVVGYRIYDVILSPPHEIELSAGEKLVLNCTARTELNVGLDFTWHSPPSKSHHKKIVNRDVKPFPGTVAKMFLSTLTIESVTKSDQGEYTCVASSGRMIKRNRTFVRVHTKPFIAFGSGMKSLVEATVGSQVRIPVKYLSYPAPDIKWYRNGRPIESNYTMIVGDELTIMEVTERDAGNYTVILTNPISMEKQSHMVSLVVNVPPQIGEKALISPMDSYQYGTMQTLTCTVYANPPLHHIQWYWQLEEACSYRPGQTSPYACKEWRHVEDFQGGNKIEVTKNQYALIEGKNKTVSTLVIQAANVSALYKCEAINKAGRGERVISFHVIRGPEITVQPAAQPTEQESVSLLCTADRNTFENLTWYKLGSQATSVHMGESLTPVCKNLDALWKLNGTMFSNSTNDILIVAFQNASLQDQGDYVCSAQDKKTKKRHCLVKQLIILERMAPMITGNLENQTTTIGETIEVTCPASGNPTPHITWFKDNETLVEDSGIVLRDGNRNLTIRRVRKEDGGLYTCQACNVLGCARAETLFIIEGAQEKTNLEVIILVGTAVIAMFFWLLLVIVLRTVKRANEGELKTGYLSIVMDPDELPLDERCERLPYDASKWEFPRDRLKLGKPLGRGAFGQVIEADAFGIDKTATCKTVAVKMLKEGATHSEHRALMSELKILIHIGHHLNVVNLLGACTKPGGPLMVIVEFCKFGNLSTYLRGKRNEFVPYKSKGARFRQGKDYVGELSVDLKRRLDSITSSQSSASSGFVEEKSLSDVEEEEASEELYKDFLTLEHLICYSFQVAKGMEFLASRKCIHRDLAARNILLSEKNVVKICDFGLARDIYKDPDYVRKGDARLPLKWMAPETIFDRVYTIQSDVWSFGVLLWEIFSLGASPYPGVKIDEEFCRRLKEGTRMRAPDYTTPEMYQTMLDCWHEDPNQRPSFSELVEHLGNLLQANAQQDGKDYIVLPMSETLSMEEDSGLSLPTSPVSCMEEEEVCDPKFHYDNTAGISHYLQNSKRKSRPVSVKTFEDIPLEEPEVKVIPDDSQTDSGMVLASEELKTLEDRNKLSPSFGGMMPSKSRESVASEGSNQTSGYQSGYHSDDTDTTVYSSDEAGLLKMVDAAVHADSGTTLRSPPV

B1: Myc2.RYK (double Myc epitope-tagged mouse RYK) (receptor, UniProt Q01887 35-594, looked up, not shown: small tags and cut ends)
chain: RSPALAAAPAGPSVSLYLSEDEVRRLLGLDAELYYVRNDLISHYALSFNLLVPSETNFLHFTWHAKSKVEYKLGFQVDNFVAMGMPQVNISAQGEVPRTLSVFRVELSCTGKVDSEVMILMQLNLTVNSSKNFTVLNFKRRKMCYKKLEEVKTSALDKNTSRTIYDPVHAAPTTSTRVFYISVGVCCAVIFLVAIILAVLHLHSMKRIELDDSISASSSSQGLSQPSTQTTQYLRADTPNNATPITSSSGYPTLRIEKNDLRSVTLLEAKAKVKDIAISRERITLKDVLQEGTFGRIFHGILVDEKDPNKEKQTFVKTVKDQASEVQVTMMLTESCKLRGLHHRNLLPITHVCIEEGEKPMVVLPYMNWGNLKLFLRQCKLVEANNPQAISQQDLVHMAIQIACGMSYLARREVIHRDLAARNCVIDDTLQVKITDNALSRDLFPMDYHCLGDNENRPVRWMALESLVNNEFSSASDVWAFGVTLWELMTLGQTPYVDIDPFEMAAYLKDGYRIAQPINCPDELFAVMACCWALDPEERPKFQQLVQCLTEFHAALGAYV
notes: mature; also called wild-type RYK
On to B1, for which the binding result is “no binding” in the assay with mouse TIE2, “no binding” in the assay with mouse VEGFR2, “no binding” with human EGFR and “binds” in the assay with human EphB3.

B2: endogenous mouse RYK (receptor, UniProt Q01887 35-594, looked up)
chain: B1 chain
notes: also called RYK beta subunit
Regarding B2, in the assay with endogenous mouse AF-6, the binding result is listed as “binds”.
